The conditions of data set [1]: animal studies; cited from earlier work.
The conditions of data set [2]: in vivo; cited from earlier work.
The conditions of data set [3]: doses up to 15 μg/kg, healthy volunteers; cited from earlier work.
The target of data set [4] is T1, neutral endopeptidase (NEP) (Homo sapiens, UniProt P08473).
T1 construct: purchased Enzo Life Sciences GmbH, Lörrach, Germany
Put plainly: Digest of CNP variants by Neutral Endopeptidase in vitro. The conditions noted are these: recombinant human neutral endopeptidase (NEP), pH 7.4, read-out: half life norm. (converted). It is filed as in vitro ADME. An excerpt:
Samples were taken at different time intervals. […] The resulting reaction products were assigned using HPLC-MS.

For data set [5] the following is noted: after intravenous (iv) administration; cited from earlier work.

Read-outs that look alike come from different tables or passages of the source. Bridges are numbered along the chain shown (N, C = ends). Where no end group is shown, it is not given here.

As a reminder, the half-life is how long it takes for the measured level to halve.

T1 sequence (P08473 whole entry): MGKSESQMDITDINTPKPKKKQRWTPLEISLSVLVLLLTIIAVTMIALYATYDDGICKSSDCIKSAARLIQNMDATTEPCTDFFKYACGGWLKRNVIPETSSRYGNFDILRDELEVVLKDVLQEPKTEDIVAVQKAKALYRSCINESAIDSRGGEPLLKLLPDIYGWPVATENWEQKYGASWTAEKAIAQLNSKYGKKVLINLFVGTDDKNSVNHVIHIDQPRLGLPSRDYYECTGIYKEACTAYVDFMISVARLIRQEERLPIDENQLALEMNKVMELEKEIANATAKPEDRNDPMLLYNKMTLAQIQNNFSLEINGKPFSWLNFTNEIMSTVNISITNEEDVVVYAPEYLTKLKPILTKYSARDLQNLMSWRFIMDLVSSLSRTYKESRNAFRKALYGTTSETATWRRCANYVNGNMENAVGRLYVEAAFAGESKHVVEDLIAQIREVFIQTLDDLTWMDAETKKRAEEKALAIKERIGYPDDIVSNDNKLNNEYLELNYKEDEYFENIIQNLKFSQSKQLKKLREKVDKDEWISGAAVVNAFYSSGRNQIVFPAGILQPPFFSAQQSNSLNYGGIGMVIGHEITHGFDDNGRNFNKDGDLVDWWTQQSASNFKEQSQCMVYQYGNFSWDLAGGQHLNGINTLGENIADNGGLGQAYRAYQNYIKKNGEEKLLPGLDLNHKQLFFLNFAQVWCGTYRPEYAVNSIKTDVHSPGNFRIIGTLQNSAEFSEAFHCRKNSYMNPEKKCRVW

On to “BMN-111: modified recombinant human C-type Natriuretic Peptide where 17 amino acids have been added to form a 39 amino acid CNP pharmacological analog (PGQEHPNARKYKGANKKGLSKGCFGLKLDRIGSMSGLGC; disulfide 23-39; chains of the INN, looked up)”, for which the immunogenicity entry in data set [1] is on record as “immunological response”. Besides, the half-life in data set [2] was 20 min. In addition, the cardiovascular effect result in data set [3] was “mild hypotension”.

Take `CC[C@H](C)[C@@H]1NC(=O)[C@H](CCCNC(=N)N)NC(=O)[C@H](CC(=O)O)NC(=O)[C@H](CC(C)C)NC(=O)[C@H](CCCCN)NC(=O)[C@H](CC(C)C)NC(=O)CNC(=O)[C@H](Cc2ccccc2)NC(=O)[C@@H](NC(=O)CNC(=O)[C@H](CCCCN)NC(=O)[C@H](CO)NC(=O)[C@H](CC(C)C)NC(=O)CN)CSSC[C@@H](C(=O)O)NC(=O)CNC(=O)[C@H](CC(C)C)NC(=O)CNC(=O)[C@H](CO)NC(=O)[C@H](CCSC)NC(=O)[C@H](CO)NC(=O)CNC1=O` [CNP-22]: the half-life at 100 μg CNP equivalents/mL in data set [4] was 19.2 min.

Take “CNP: C-type natriuretic peptide, as discussed in the background”: the half-life in data set [5] is 2 min.

The values above are taken from patent publication US20210069339A1, “CNP PRODRUGS” (ASCENDIS PHARMA GROWTH DISORDERS A/S, priority 2015, published 2021).
